Measurements taken from US20160168251A1 (MorphoSys, published 2016).

Target: T1, human NPRA on HEK293 cells bound to ANP (human, UniProt P01160 124-151)
T1 construct: mature; Receptor-ligand complex on cells; also called HEK NPRA cells loaded with ANP; ANP-NPRA complex
T1 sequence: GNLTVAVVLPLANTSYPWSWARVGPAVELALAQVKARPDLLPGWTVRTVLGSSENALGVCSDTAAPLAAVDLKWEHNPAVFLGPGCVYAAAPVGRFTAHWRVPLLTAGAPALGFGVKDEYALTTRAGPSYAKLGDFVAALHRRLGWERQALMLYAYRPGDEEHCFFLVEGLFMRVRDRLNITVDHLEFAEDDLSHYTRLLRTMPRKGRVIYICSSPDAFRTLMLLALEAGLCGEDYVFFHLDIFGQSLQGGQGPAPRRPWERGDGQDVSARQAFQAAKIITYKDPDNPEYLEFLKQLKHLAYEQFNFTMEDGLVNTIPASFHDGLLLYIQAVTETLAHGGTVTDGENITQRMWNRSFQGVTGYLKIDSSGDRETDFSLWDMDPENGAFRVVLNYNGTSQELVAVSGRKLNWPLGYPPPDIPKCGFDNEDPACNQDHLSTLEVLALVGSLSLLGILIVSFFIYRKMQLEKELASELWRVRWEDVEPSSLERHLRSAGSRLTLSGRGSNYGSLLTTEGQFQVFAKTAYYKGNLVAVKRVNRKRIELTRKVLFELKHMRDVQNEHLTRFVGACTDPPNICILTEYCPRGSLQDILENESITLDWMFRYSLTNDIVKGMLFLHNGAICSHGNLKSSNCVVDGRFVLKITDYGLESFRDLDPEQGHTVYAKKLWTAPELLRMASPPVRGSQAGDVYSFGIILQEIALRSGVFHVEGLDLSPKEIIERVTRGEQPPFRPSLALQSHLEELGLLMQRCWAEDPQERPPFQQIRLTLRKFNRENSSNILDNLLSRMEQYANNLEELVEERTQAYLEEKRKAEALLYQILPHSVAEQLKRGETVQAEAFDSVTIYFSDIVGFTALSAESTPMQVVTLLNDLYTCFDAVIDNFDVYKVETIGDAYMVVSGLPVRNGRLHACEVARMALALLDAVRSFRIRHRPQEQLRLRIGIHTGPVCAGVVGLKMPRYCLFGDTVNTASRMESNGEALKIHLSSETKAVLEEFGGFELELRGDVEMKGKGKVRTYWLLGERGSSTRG
T1 sequence (peptide): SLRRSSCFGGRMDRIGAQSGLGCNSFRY
Experiment: KinExA whole cell binding, HEK NPRA cells with 1 nM ANP, against SPR on NPRA-Fc

B1: 5591 IgG4_Pro (antibody, V domains shown)
VH: QVQLQQSGPGLVKPSQTLSLTCAISGDSVSSRSASWSWIRQSPGRGLEWLGRTYYRSHWYYEYAQSVKSRITINPDTSKNQFSLQLNSVTPEDTAVYYCARMDVPSFRYFDVWGQGTLVTVSS
VL: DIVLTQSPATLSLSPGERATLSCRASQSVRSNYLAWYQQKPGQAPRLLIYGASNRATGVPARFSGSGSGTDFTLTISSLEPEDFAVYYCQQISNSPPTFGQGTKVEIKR
In the case of B1, the “fold, apparent Kd on cells (KinExA) over Kd by surface plasmon resonance on NPRA-Fc” value is reported as roughly 20 fold.
